Reference: US20130156786A1 (Sanofi, published 2013)
Several values for one entry are separate records, joined by “and”; a condition that tells them apart may be missing. Equal values may be shown once.

T1: human integrin α2 I domain, recombinantly expressed in E. coli (human, UniProt P17301 169-368, limits assumed)
T1 construct: Analyte of the Biacore experiments; also called integrin α2β1 I-domain; integrin I-domain
T1 sequence: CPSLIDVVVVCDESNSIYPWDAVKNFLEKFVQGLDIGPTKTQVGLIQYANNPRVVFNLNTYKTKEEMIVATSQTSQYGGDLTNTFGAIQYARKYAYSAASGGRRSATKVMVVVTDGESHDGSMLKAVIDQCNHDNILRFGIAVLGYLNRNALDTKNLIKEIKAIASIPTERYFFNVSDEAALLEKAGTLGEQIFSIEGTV

T2: α2-I-domain GST aa 140-339 (human, UniProt P17301 169-368)
T2 construct: May be the same protein as m4; also called I-domain of integrin α2β1 integrin; not shown: GST
T2 sequence: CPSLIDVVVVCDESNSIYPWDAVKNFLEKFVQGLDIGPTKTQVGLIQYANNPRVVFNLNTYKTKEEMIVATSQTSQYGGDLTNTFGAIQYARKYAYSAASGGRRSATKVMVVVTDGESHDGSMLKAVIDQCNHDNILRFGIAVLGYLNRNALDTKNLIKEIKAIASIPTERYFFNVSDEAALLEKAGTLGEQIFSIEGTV

B1: chimeric anti α2-integrin-Fab (6xHis tagged CH1 of human IGHG1) (Fab, V domains shown)
VH: QVQLHQPGAELVKPGAPVKLSCKASGYTFTSYWMNWVKQRPGRGLEWIGRIDPSDSETHYNQKFKDKATLTVDKSSSTAYIQLSSLTSEDSAVYYCAKVGRGYFDYWGQGTTLTVSS
VL: NIVLTQSPASLAVSLGQRATISCRASESVESYGNSFIYWYQQKPGQAPKLLIYLASNLASGVPARFSGSGSRTDFTLTIDPVEADDAATYYCQQNNEDPYTFGGGTKLEIKR
notes: also called Fab fragment; Fab frament
B2: humanized anti-α2-integrin mAb LC3/HC3 (antibody, IgG4, V domains shown)
VH: QVQLHQPGAELVKPGASVKLSCKASGYTFTSYWMNWVKQRPGRGLEWIGRIDPSDSETHYNQKFKDKATLTVDKSSSTAYIQLSSLTSEDSAVYYCAKVGRGYFDYWGQGTTLTVVS
VL: NIVLTQSPSSLSVSVGQRATISCRASESVESYGNSFIYWYQQKPGQAPKLLIYLASNLASGVPARFSGSGSRTDFTLTIDPVQAEDAATYYCQQNNEDPYTFGGGTKLEIK
B3: humanized anti-α2-integrin mAb LC4/HC6 (antibody, IgG4, V domains shown)
VH: QVQLHQPGAELVKPGASVKLSCKASGYTFTSYWMNWVKQRPGRGLEWIGRIDPSESETHYNQKFKDKATLTVDKSSSTAYIQLSSLTSEDSAKYYCAKVGRGYFDYWGQGTTLTVVS
VL: NIVLTQSPSSLSVSVGQRATISCRASESVESYGQSFIYWYQQKPGQAPKLLIYLASNLASGVPARFSGSGSRTDFTLTIDPVQAEDAATYYCQQNNEDPYTFGGGTKLEIK
B4: humanized anti-α2-integrin mAb LC3/HC4 (antibody, IgG4, V domains shown)
VH: QVQLHQPGAELVKPGASVKLSCKASGYTFTSYWMNWVKQRPGRGLEWIGRIDPSDSETHYNQKFKDKATLTVDKSSSTAYIQLSSLTSEDSAKYYCAKVGRGYFDYWGQGTTLTVVS
VL: NIVLTQSPSSLSVSVGQRATISCRASESVESYGNSFIYWYQQKPGQAPKLLIYLASNLASGVPARFSGSGSRTDFTLTIDPVQAEDAATYYCQQNNEDPYTFGGGTKLEIK
B5: humanized anti-α2-integrin mAb LC1/HC1 (antibody, IgG4, V domains shown)
VH: QVQLHQPGAELVKPGAPVKLSCKASGYTFTSYWMNWVKQRPGQGLEWIGRIDPSDSETHYNQKFKDRATLTVDKSSSTAYIQLSSLTSEDSAVYYCAKVGRGYFDYWGQGTTLTVVS
VL: NIVLTQSPSSLAVSVGQRATISCRASESVESYGNSFIYWYQQKPGKAPKLLIYLASNLASGVPARFSGSGSRTDFTLTIDPVQADDAATYYCQQNNEDPYTFGGGTKLEIK
B6: humanized anti-α2-integrin mAb LC4/HC5 (antibody, IgG4, V domains shown)
VH: QVQLHQPGAELVKPGASVKLSCKASGYTFTSYWMNWVKQRPGRGLEWIGRIDPSESETHYNQKFKDKATLTVDKSSSTAYIQLSSLTSEDSAVYYCAKVGRGYFDYWGQGTTLTVVS
VL: NIVLTQSPSSLSVSVGQRATISCRASESVESYGQSFIYWYQQKPGQAPKLLIYLASNLASGVPARFSGSGSRTDFTLTIDPVQAEDAATYYCQQNNEDPYTFGGGTKLEIK
B7: humanized anti-α2-integrin mAb LC2/HC2 (antibody, IgG4, V domains shown)
VH: QVQLHQPGAELVKPGAPVKLSCKASGYTFTSYWMNWVKQRPGQGLEWIGRIDPSESETHYNQKFKDRATLTVDKSSSTAYIQLSSLTSEDSAVYYCAKVGRGYFDYWGQGTTLTVVS
VL: NIVLTQSPSSLAVSVGQRATISCRASESVESYGQSFIYWYQQKPGKAPKLLIYLASNLASGVPARFSGSGSRTDFTLTIDPVQADDAATYYCQQNNEDPYTFGGGTKLEIK
B8: humanized anti-α2-integrin mAb LC5/HC7 (antibody, IgG4, V domains shown)
VH: QVQLVQSGAEVKKPGASVKVSCKASGYTFTSYWMNWVRQAPGQGLEWIGRIDPSDSETHYAQKFQGRATLTVDKSTSTAYMELSSLRSEDTAVYYCAKVGRGYFDYWGQGTLVTVSS
VL: NIVLTQSPASLAVSPGQRATITCRASESVESYGNSFIYWYQQKPGQPPKLLIYLASNLASGVPARFSGSGSRTDFTLTINPVEADDTANYYCQQNNEDPYTFGGGTKLEIK
B9: TMC2206, humanized hIgG4 anti-alpha 2 integrin antibody (comparator) (antibody, V domains shown)
VH: QVQLQESGPGLVKPSETLSLTCTVSGFSLTNYGIHWIRQPPGKGLEWLGVIWARGFTNYNSALMSRLTISKDNSKNQVSLKLSSVTAADTAVYYCARANDGVYYAMDYWGQGTLVTVSS
VL: DFVMTQSPAFLSVTPGEKVTITCSAQSSVNYIHWYQQKPDQAPKKLIYDTSKLASGVPSRFSGSGSGTDYTFTISSLEAEDAATYYCQQWTTNPLTFGQGTKVEIKR
B10: chimeric anti α2-integrin-IgG4 (murine variable domains on human IGKC and mutated human IGHG4) (antibody)
heavy: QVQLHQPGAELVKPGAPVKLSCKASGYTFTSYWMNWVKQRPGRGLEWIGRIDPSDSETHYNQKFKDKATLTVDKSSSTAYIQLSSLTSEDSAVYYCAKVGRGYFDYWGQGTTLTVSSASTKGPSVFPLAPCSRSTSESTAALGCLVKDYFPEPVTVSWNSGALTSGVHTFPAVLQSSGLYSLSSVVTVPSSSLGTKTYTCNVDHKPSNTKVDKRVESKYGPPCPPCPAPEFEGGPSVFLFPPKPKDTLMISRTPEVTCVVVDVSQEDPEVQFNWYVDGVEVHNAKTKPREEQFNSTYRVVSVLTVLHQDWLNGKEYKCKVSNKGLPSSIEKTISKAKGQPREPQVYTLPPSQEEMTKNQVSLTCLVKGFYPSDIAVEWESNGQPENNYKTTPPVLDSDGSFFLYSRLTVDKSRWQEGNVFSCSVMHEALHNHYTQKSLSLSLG
light: NIVLTQSPASLAVSLGQRATISCRASESVESYGNSFIYWYQQKPGQAPKLLIYLASNLASGVPARFSGSGSRTDFTLTIDPVEADDAATYYCQQNNEDPYTFGGGTKLEIKRTVAAPSVFIFPPSDEQLKSGTASVVCLLNNFYPREAKVQWKVDNALQSGNSQESVTEQDSKDSTYSLSSTLTLSKADYEKHKVYACEVTHQGLSSPVTKSFNRGEC
notes: Expressed in HEK 293-FS; also called IgG4 mAb; Antibody

Legend:
[1] = biological target: T3, recombinantly expressed integrin α2β1 (human, UniProt P17301 30-1132; P05556 21-728, limits assumed); assay: solid phase assay: inhibition of biotinylated collagen binding to coated α2β1, 4% HSA
T3 construct: The assay paragraph gives neither species nor construct limits; also called a2β1; recombinant α2 integrin
T3 sequence (P17301 30-1132 limits assumed, chain 1 of 2): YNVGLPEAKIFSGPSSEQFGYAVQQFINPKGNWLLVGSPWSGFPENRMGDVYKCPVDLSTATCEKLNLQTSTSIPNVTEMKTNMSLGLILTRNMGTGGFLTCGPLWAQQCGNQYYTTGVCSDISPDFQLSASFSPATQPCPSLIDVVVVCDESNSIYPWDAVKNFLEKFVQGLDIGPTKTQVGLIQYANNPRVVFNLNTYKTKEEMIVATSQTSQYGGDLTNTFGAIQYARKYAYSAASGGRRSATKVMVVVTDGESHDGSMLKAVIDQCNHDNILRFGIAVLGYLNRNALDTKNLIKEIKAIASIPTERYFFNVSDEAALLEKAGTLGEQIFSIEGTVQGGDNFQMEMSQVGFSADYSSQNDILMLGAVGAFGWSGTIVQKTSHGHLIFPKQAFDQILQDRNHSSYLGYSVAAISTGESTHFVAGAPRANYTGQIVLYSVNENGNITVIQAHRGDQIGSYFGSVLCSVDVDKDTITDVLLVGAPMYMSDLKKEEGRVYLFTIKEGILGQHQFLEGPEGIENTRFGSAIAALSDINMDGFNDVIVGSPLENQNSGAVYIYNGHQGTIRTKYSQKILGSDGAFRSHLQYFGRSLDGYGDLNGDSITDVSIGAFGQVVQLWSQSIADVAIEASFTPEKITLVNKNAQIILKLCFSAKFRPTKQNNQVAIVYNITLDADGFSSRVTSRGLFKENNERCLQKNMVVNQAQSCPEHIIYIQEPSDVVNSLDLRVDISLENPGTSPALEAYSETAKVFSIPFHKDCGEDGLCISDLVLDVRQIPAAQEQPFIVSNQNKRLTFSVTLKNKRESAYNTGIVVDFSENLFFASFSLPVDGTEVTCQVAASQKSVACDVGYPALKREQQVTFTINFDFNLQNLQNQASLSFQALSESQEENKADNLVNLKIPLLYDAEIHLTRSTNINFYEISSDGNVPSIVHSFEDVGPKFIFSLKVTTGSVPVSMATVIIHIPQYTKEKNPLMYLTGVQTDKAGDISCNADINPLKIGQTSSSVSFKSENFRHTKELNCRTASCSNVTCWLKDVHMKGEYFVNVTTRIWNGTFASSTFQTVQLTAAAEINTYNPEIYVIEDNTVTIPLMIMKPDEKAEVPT
T3 sequence (P05556 21-728 limits assumed, chain 2 of 2): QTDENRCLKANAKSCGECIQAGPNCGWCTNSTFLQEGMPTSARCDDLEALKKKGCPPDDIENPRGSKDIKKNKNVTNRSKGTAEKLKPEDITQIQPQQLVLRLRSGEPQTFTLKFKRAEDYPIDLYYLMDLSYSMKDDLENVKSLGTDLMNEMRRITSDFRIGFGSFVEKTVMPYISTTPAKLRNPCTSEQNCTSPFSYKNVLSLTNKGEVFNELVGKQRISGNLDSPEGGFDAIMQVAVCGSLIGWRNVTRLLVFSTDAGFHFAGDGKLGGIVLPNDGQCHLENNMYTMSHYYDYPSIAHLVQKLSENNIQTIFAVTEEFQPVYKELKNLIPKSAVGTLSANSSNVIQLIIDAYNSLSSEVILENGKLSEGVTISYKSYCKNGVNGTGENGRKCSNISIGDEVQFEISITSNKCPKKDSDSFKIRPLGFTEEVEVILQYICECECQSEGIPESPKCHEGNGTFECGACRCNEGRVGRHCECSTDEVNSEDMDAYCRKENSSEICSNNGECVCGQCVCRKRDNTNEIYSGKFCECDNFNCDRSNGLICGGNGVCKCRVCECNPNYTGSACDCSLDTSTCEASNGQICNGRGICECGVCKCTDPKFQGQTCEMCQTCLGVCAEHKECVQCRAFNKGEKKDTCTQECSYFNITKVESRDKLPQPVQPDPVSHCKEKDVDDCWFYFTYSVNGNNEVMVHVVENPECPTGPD

[2] = biological target: T1, human integrin α2 I domain, …; assay: SPR Biacore 3000, Fab immobilised by amine coupling, I-domain as analyte, 1:1 model with mass transfer
Excerpt: (§1) Surface plasmon resonance technology on a Biacore 3000 (GE Healthcare) was used for detailed kinetic characterisation of the purified antibody and the corresponding Fab fragment. A direct binding assay was used with the anti-integrin antibody or the Fab fragment as the ligand and the integrin α2β1 I-domain as analyte. Typically, 600 RU of antibody or Fab fragment were immobilised on a research grade CMS chip by amine reactive coupling, resulting in an Rmax of 80 and 140 RU for the I domain bound to the antibody and the Fab fragment, respectively. Binding kinetics were measured over a concentration range between 0.4 to 28 nM I-domain in HBS-P buffer supplemented with 4 mM MgCl2 (10 mM HEPES pH 7.4, 150 mM NaCl, 0.005% Surfactant P20) at a flow rate of 30 μl/min. Chip surfaces were regenerated with 10 mM glycine pH 2.2. Kinetic parameters were analysed and calculated in the BIAevaluation program package (version 4.1) using a flow cell without immobilised anti-integrin antibody or Fab fragment as reference. A 1:1 binding model with mass transfer was applied for a global fit of the data for curves corresponding to analyte concentrations from 0.4-28 nM […].

[3] = biological target: T3, recombinantly expressed integrin α2β1; assay: solid phase assay: inhibition of biotinylated collagen binding to coated α2β1
[4] = biological target: T4, human α2β1 integrin on human platelets (human, UniProt P17301 30-1181; P05556 21-798); assay: cell-based or functional assay
T4 sequence (P17301 30-1181 limits assumed, chain 1 of 2): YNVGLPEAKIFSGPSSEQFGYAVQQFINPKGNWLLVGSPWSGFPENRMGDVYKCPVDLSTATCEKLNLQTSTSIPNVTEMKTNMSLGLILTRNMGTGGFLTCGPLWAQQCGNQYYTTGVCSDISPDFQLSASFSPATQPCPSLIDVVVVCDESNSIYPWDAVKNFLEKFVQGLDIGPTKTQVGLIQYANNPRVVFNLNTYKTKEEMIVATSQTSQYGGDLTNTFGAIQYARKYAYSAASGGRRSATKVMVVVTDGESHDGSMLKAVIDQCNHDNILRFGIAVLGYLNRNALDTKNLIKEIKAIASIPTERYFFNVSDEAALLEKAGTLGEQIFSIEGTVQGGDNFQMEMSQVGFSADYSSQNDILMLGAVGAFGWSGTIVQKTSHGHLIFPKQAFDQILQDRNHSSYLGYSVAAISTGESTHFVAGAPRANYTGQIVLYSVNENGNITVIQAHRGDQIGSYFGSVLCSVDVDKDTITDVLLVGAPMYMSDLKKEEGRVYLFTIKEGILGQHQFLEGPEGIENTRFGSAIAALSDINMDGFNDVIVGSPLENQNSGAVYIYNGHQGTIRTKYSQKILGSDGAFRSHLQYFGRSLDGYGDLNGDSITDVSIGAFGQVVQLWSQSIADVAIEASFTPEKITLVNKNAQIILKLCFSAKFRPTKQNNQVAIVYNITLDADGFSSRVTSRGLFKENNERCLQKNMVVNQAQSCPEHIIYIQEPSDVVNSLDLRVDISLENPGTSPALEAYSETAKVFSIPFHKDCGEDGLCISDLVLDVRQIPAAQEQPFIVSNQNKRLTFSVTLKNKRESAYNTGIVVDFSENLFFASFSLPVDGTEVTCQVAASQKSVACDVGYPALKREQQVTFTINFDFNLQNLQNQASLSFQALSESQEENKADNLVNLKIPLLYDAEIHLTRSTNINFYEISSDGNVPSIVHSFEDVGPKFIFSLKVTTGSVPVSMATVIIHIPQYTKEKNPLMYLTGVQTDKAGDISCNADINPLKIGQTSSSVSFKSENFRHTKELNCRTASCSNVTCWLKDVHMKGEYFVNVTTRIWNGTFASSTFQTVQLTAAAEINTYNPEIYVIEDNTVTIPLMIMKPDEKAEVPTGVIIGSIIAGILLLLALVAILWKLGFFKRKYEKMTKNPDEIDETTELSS
T4 sequence (P05556 21-798 limits assumed, chain 2 of 2): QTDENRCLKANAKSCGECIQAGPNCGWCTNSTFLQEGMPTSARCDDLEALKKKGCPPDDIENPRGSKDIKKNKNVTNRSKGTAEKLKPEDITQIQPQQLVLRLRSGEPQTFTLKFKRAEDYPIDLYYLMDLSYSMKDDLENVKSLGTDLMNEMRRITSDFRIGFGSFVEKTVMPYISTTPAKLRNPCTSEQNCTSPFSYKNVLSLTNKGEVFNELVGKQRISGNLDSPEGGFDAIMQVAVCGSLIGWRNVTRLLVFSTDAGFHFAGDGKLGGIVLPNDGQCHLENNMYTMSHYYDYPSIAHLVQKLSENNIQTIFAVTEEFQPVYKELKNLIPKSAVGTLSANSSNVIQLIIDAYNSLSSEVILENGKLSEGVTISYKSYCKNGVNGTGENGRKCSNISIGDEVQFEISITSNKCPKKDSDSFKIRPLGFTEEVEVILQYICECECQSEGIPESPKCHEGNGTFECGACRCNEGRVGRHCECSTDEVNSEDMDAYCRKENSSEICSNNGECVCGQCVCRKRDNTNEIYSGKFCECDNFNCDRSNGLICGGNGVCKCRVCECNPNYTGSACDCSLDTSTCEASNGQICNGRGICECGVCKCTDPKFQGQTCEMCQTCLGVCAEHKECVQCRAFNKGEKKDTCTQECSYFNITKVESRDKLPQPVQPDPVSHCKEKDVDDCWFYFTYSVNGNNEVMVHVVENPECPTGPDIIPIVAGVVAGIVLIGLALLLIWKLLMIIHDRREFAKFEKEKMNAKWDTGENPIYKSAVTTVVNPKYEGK

[5] = biological target: T4, human α2β1 integrin on human platelets; assay: cell-based or functional assay; remark: listed apart in the source
[6] = biological target: T4, human α2β1 integrin on human platelets; assay: cell-based or functional assay; remark: listed apart in the source
[7] = biological target: T2, α2-I-domain GST aa 140-339; assay: solid phase assay: inhibition of biotinylated collagen binding to coated α2-I-domain
Description: For the Solid Phase Assay, integrin (α₂-I-domain: α₂-I-domain GST aa 140-339 in TBS/5 mM Mn²⁺, 50 μl/well) was immobilized on 96-well plate (Corning Costar, 3690), at room temperature overnight. Then, 25 μl/well of blocking solution (5% BSA (crude) (A7906), 1×TBS) were added and discarded. 200 μl/well of blocking solution were added and left for 3 h at room temperature. After a washing step (3 times with 200 μl/well binding buffer: 1×TBS and 0.1% BSA (A7638) and 2 mM Mn²⁺; TBS: 150 mM NaCl, 25 mM Tris (Fluka 93371) pH7.4), samples were incubated at RT for 3 h stationary with 50 μl of:
After a washing step (3 times with 200 μl/well binding buffer), samples were incubated with 50 μl/well ExtrAvidin Peroxidase (Peroxidase conjugate, Sigma E2886; 1:500 in binding buffer) for 30 min at RT and again washed 4 times with 200 μl/well binding buffer. […]

[8] = biological target: T1, human integrin α2 I domain, …; assay: SPR Biacore 3000, antibody immobilised by amine coupling, I-domain as analyte, 1:1 model with mass transfer
Excerpt: as §1

| Binder | Inhibition of binding of washed platelets to collagen, IC50 [5] | Inhibition of binding of platelets to collagen in platelet rich plasma, MW IC50 [6] | further results |
| --- | --- | --- | --- |
| B1 |  |  | IC50 [1]: 0.4 µg/mL and 8.2 nM; Kd [2]: 0.84 nM; koff [2]: 0.00083 s⁻¹; kon [2]: 990000 M⁻¹ s⁻¹; IC50 [3]: 0.2 µg/mL and 4.2 nM; Human platelet adhesion to collagen under shear (whole blood) 3000 s-1, IC50 [4]: 1.3 nM and 0.06 µg/mL; Static human platelet adhesion to collagen (PRP), IC50 [4]: 0.3 µg/mL and 6.7 nM; Static human platelet adhesion to collagen (washed plt), IC50 [4]: 0.04 µg/mL and 0.8 nM |
| B2 | 0.012 µg/mL | 0.132 µg/mL |  |
| B3 | 0.068 µg/mL | 4.11 µg/mL |  |
| B4 | 0.016 µg/mL | 0.193 µg/mL |  |
| B5 | 0.021 µg/mL | 0.277 µg/mL |  |
| B6 | 0.057 µg/mL | 3.25 µg/mL |  |
| B7 | 0.092 µg/mL | 3.96 µg/mL |  |
| B8 | 0.031 µg/mL | 0.224 µg/mL |  |
| B9 | 0.023 µg/mL | 0.11 µg/mL |  |
| B10 |  |  | IC50 [3]: 0.05 µg/mL and 0.3 nM; IC50 [7]: 0.2 µg/mL and 1.5 nM; Static human platelet adhesion to collagen (PRP), IC50 [4]: 0.3 µg/mL and 6.7 nM; Static human platelet adhesion to collagen (washed plt), IC50 [4]: 0.017 µg/mL and 0.1 nM; Kd [8]: 1.35 nM; koff [8]: 0.00117 s⁻¹; kon [8]: 860000 M⁻¹ s⁻¹ |
